Measurements from patent publication US20210238289A1 (Biogen, published 2021).
Changes are numbered by the printed parent chain. Numbers in names are those of the source.

B1: CN645 (hu5c8 IgG1 N297P, T299K) (antibody)
heavy: not shown
light: DIVLTQSPATLSVSPGERATISCRASQRVSSSTYSYMHWYQQKPGQPPKLLIKYASNLESGVPARFSGSGSGTDFTLTISSVEPEDFATYYCQHSWEIPPTFGGGTKLEIKRTVAAPSVFIFPPSDEQLKSGTASVVCLLNNFYPREAKVQWKVDNALQSGNSQESVTEQDSKDSTYSLSSTLTLSKADYEKHKVYACEVTHQGLSSPVTKSFNRGEC
B2: EAG2377 (hu5c8 IgG1 T299N) (antibody)
heavy: not shown
light: B1 light
B3: CN647 (hu5c8 IgG1 N297D, T299K) (antibody)
heavy: not shown
light: B1 light
B4: EAG2379 (hu5c8 IgG1 T299E) (antibody)
heavy: not shown
light: B1 light
B5: CN646 (hu5c8 IgG1 N297S, T299K) (antibody)
heavy: not shown
light: B1 light
B6: EAG2389 (hu5c8 IgG1 T299Q) (antibody)
heavy: not shown
light: B1 light
B7: EAG2380 (hu5c8 IgG1 T299F) (antibody)
heavy: not shown
light: B1 light
B8: EAG2390 (hu5c8 IgG1 T299P) (antibody)
heavy: not shown
light: B1 light
B9: EAG2378 (hu5c8 IgG1 T299R) (antibody)
heavy: not shown
light: B1 light
B10: H1L1 (antibody, V domains shown)
VH: EVQLVQSGAEVKKPGATVKISCKASGFNIKDTYMHWVQQAPGKGLEWMGRIDPASGDTKYDPKFQVRVTITADTSTDTAYMELSSLRSEDTAVYYCADGMWVSTGYALDFWGQGTLVTVSS
VL: SIVMTQSPDSLAVSLGERATINCKASQSVTNDVAWYQQKPGQPPKLLIYYASNRYTGVPDRFSGSGSGTDFTLTISSLQAEDVAVYFCQQDYSSPYTFGQGTKVEIK
notes: also called Design H1 / Design L1
B11: H1L2 (antibody, V domains shown)
VH: B10 VH
VL: B10 VL with S67Y
notes: also called Design H1 / Design L2
B12: H1L3 (antibody, V domains shown)
VH: B10 VH
VL: B10 VL with S67Y, L73F, V85T
notes: also called Design H1 / Design L3
B13: H1L0 (antibody, V domains shown)
VH: B10 VH
VL: B10 VL with S1D, F87Y
notes: also called Design H1 / Design L0
B14: Chimeric HP1/2 (antibody, human IgG1, V domains shown)
VH: EVQLQQSGAELVKPGASVKLSCTASGFNIKDTYMHWVKQRPEQGLEWIGRIDPASGDTKYDPKFQVKATITADTSSNTAWLQLSSLTSEDTAVYYCADGMWVSTGYALDFWGQGTTVTVSS
VL: SIVMTQTPKFLLVSAGDRVTITCKASQSVTNDVAWYQQKPGQSPKLLIYYASNRYTGVPDRFTGSGYGTDFTFTISTVQAEDLAVYFCQQDYSSPYTFGGGTKLEIK
notes: also called chimerized HP1/2 antibody; chimeric mAb
B15: EAG2300 (hu5c8 IgG4 chimeric hinge + IgG1 CH3, glycosylated) (antibody)
heavy: QVQLVQSGAEVVKPGASVKLSCKASGYIFTSYYMYWVKQAPGQGLEWIGEINPSNGDTNFNEKFKSKATLTVDKSASTAYMELSSLRSEDTAVYYCTRSDGRNDMDSWGQGTLVTVSSASTKGPSVFPLAPCSRSTSESTAALGCLVKDYFPEPVTVSWNSGALTSGVHTFPAVLQSSGLYSLSSVVTVPSSSLGTKTYTCNVDHKPSNTKVDKRVESKYGPPCPPCPAPPVAGPSVFLFPPKPKDTLMISRTPEVTCVVVDVSQEDPEVQFNWYVDGVEVHNAKTKPREEQFNSTYRVVSVLTVLHQDWLNGKEYKCKVSNKGLPSSIEKTISKAKGQPREPQVYTLPPSRDELTKNQVSLTCLVKGFYPSDIAVEWESNGQPENNYKTTPPVLDSDGSFFLYSKLTVDKSRWQQGNVFSCSVMHEALHNHYTQKSLSLSPG
light: B1 light
modifications: N-terminal Q largely converted to pyroglutamic acid; N-linked G0F/G1F/G2F glycans (mass spectrometry)
notes: also called pEAG2300; copies: 2 + 2
B16: EC331 (hu5c8 IgG4.P T299K, T307P, IgG4 CH2/IgG1 CH3 chimera, aglycosylated) (antibody)
heavy: QVQLVQSGAEVVKPGASVKLSCKASGYIFTSYYMYWVKQAPGQGLEWIGEINPSNGDTNFNEKFKSKATLTVDKSASTAYMELSSLRSEDTAVYYCTRSDGRNDMDSWGQGTLVTVSSASTKGPSVFPLAPCSRSTSESTAALGCLVKDYFPEPVTVSWNSGALTSGVHTFPAVLQSSGLYSLSSVVTVPSSSLGTKTYTCNVDHKPSNTKVDKRVESKYGPPCPPCPAPEFLGGPSVFLFPPKPKDTLMISRTPEVTCVVVDVSQEDPEVQFNWYVDGVEVHNAKTKPREEQFNSKYRVVSVLPVLHQDWLNGKEYKCKVSNKGLPSSIEKTISKAKGQPREPQVYTLPPSRDELTKNQVSLTCLVKGFYPSDIAVEWESNGQPENNYKTTPPVLDSDGSFFLYSKLTVDKSRWQQGNVFSCSVMHEALHNHYTQKSLSLSPG
light: B1 light
modifications: N-terminal Q largely converted to pyroglutamic acid (mass spectrometry)
notes: copies: 2 + 2
B17: YC403 (hu5c8 IgG4.P S228P, T299A, T307P, L309K, D399S, aglycosylated) (antibody)
heavy: B16 heavy with K297A, L307K, R353Q, D354E, L356M, D397S, K407R, Q417E, P443L
light: B1 light
modifications: N-terminal Q largely converted to pyroglutamic acid (mass spectrometry)
notes: copies: 2 + 2
B18: YC401 (hu5c8 IgG4.P S228P, T299A, T307P, D399S, aglycosylated) (antibody)
heavy: B16 heavy with K297A, R353Q, D354E, L356M, D397S, K407R, Q417E, P443L
light: B1 light
modifications: N-terminal Q largely converted to pyroglutamic acid (mass spectrometry)
notes: copies: 2 + 2
B19: IgG4.P T299A (aglycosylated hu5c8 IgG4.P S228P, T299A) (antibody)
heavy: not shown
light: B1 light
notes: also called agly IgG4.P; IgG4.P agly (S228P, T299A); copies: 2 + 2
B20: IgG1 T299A (aglycosylated hu5c8 IgG1) (antibody)
heavy: not shown
light: B1 light
notes: also called IgG1 agly (T299A); agly IgG1
B21: EAG2412 (hu5c8 S228P/N297Q, IgG4 CH1, IgG4 CH2, IgG1 CH3, aglycosylated) (antibody)
heavy: QVQLVQSGAEVVKPGASVKLSCKASGYIFTSYYMYWVKQAPGQGLEWIGEINPSNGDTNFNEKFKSKATLTVDKSASTAYMELSSLRSEDTAVYYCTRSDGRNDMDSWGQGTLVTVSSASTKGPSVFPLAPCSRSTSESTAALGCLVKDYFPEPVTVSWNSGALTSGVHTFPAVLQSSGLYSLSSVVTVPSSSLGTKTYTCNVDHKPSNTKVDKRVESKYGPPCPPCPAPEFLGGPSVFLFPPKPKDTLMISRTPEVTCVVVDVSQEDPEVQFNWYVDGVEVHNAKTKPREEQFQSTYRVVSVLTVLHQDWLNGKEYKCKVSNKGLPSSIEKTISKAKGQPREPQVYTLPPSRDELTKNQVSLTCLVKGFYPSDIAVEWESNGQPENNYKTTPPVLDSDGSFFLYSKLTVDKSRWQQGNVFSCSVMHEALHNHYTQKSLSLSP
light: B1 light
notes: also called N297Q IgG4-CH2/IgG1-CH3; copies: 2 + 2

molecular target: T1, CD64 (FcγRI) (UniProt P12314 16-288, limits assumed); test: solution competition SPR (Biacore)
Experimental: (§1) Binding to Fcγ receptors was analyzed using solution affinity surface plasmon resonance (ref Day E S, Cachero T G, Qian F, Sun Y, Wen D, Pelletier M, Hsu Y M, Whitty A. Selectivity of BAFF/BLyS and APRIL for binding to the TNF family receptors BAFFR/BR3 and BCMA. Biochemistry. 2005 Feb. 15; 44(6):1919-31.) The method utilizes conditions of so-called “mass-transport-limited” binding, in which the initial rate of ligand binding (protein binding to the senor chip) is proportional to the concentration of ligand in solution (ref BIApplications Handbook (1994) Chapter 6: Concentration measurement, pp 6-1-6-10, Pharmacia Biosensor AB). Under these conditions, binding of the soluble analyte (protein flowing over chip surface) to the immobilized protein on the chip is fast compared to the diffusion of the analyte into the dextran matrix on the chip surface. Therefore, the diffusion properties of the analyte and the concentration of analyte in solution flowing over the chip surface determine the rate at which analyte binds to the chip. In this experiment, the concentration of free Fc receptor in solution is determined by the initial rate of binding to a CM5 Biacore chip containing an immobilized IgG1 MAb. Into these Fc receptor solutions were titrated the stability engineered constructs (see Table 10.1 below). […] Initial binding rates were obtained from raw sensorgram data (FIG. 14). […] The results are shown in Table 10.1 and reported as the average of two titrations.

In order of falling IC50:
1. B9  5970 µM
2. B3  4480 µM
3. B1  4390 µM
4. B5  3160 µM
5. B2  586 µM
6. B6  455 µM
7. B8  392 µM
8. B7  345 µM
9. B4  196 µM

molecular target: T2, α4β1 (VLA-4) as used in the competition ELISAs (UniProt P13612 34-970; P05556 21-728); test: competition ELISA; integrin preincubated with test mAb, then murine HP1/2 as competing reagent

In order of falling IC50:
1. B13  0.00187 µM
2. B10  0.00167 µM
3. B14  0.00106 µM
4. B11  0.0009 µM
5. B12  0.00049 µM

molecular target: T2, α4β1 (VLA-4) as used in the competition …; test: competition ELISA; mixture of mouse HP1/2 with test mAb binding to integrin

In order of falling IC50:
1. B10  0.00455 µM
2. B13  0.00446 µM
3. B14  0.00164 µM
4. B11  0.00134 µM

molecular target: T1, CD64 (FcγRI); test: solution competition SPR (Biacore); construct titrated into receptor, free receptor read on immobilized IgG1 MAb
Experimental: as §1

In order of rising IC50:
1. B20  205 µM
2. B18  377 µM
3. B17  434 µM
4. B19  739 µM
5. B16  2600 µM
6. B15  3020 µM

molecular target: T3, human C1q (human, UniProt P02745 23-245; P02746 28-253; P02747 29-245); test: C1q ELISA
T3 construct: Bought protein; also called complement factor C1q; Sigma human C1q (C0660)
Experimental: The C1q binding assay was be performed by coating 96 well Maxisorb ELISA plates (Nalge-Nunc Rochester, N.Y., USA) with 50 μl recombinant soluble human CD40 ligand at 10 ug/ml overnight at 4° C. in PBS. The wells were aspirated and washed three times with wash buffer (PBS, 0.05% Tween 20) and blocked for 1 hour with 200 µl/well of block/diluent buffer (0.1 M Na2HP04, pH 7.0, 1 M NaCl, 0.05% Tween 20, 1% gelatin). The antibodies were diluted in block/diluent buffer with 3-fold dilutions and incubated for 2 hours at room temperature.
After aspirating and washing as above, 50 pll/well of sheep anti C1q (Serotec AHP033), diluted 3, 560-fold in block/diluent buffer, were added. After incubation for 1 h at room temperature, the wells were aspirated and washed as above. 50 pll/well of donkey anti-sheep IgG HRP conjugate (Jackson ImmunoResearch 713-035-147) diluted to 1:10,000 in block/diluent were then added, and the wells incubated for 1 h at room temperature.
After aspirating and washing as above, 100 all TMB substrate (420 plM TMB, 0.004% H2O2 in 0.1 M sodium acetate/citric acid buffer, pH 4.9) were added and incubated for 2 min before the reaction was stopped with 100 ul 2 N sulfuric acid. The absorbance was read at 450 nm with a Softmax PRO instrument, and Softmax software was used to determine the relative binding affinity (C value) with a 4-parameter fit.

B1: no binding.
B21: no binding.
B3: no binding.
B5: no binding.
B8: no binding.
